Data on four substances can be found in article PMC6299097.

Holding throughout (assay): crystal structure; L1 pentamers (Cys175 to Ser, limited trypsin digestion) at ~5 mg/mL, vapour diffusion at 20 °C
In assay [1] the target is H58-33BC chimeric L1 pentamer (Human papillomavirus type 58).
The target in assay [2] is H58-33BC-52HI chimeric L1 pentamer (Human papillomavirus type 58).
Assay [3] deals with HPV33 L1 pentamer (Human papillomavirus type 33).
Assay [4] addresses HPV52 L1 pentamer (Human papillomavirus type 52).

Substance H58-33BC chimeric L1 pentamer (complex) gave a stoichiometry N in assay [1] of 5.

“H58-33BC-52HI chimeric L1 pentamer (complex)” gave a stoichiometry N in assay [2] of 5.

Substance HPV33 L1 pentamer (complex) registered a stoichiometry N in assay [3] of 5.

HPV52 L1 pentamer (complex) registered a stoichiometry N in assay [4] of 5.

Broadly, the stoichiometry N is a count of units in the complex or per binding partner.
